Source: patent US20220332795A1

molecular target: human serum albumin (human) (UniProt P02768); experiment: primary solution ELISA screen
Sequence (P02768 25-609 limits assumed): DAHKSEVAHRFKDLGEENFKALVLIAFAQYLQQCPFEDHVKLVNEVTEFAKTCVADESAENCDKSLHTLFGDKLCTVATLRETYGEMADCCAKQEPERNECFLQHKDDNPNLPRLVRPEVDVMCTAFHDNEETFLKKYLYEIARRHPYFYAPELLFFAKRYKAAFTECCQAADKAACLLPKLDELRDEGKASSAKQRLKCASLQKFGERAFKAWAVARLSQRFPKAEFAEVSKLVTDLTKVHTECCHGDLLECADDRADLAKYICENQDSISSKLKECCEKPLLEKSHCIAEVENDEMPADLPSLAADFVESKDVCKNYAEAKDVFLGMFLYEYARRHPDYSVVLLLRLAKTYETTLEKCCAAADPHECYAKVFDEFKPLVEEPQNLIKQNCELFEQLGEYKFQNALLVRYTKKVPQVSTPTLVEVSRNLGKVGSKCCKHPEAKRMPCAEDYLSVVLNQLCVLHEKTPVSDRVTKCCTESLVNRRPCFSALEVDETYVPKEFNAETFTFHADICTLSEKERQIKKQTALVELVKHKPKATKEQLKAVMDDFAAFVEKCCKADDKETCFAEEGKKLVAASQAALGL

Binder | RLU
SEQ ID NO 23 (designed binder, not shown: small tags and cut ends) MLPAPKNLVVSRVTEDSARLSWTAPDAAFDSFAIWYHEWYGDGEAIVLTVPGSERSYDLTGPKPGTEYRVRISGVKGGFESGPLSAIFTT | 12600 RLU
SEQ ID NO 2 (designed binder, not shown: small tags and cut ends) MLPAPKNLVVSEVTEDSARLSWQGVARAFDSFMINYSELFWMGEAIVLTVPGSERSYDLTGLKPGTEYVVRIKGVKGGKGSWPLHAHFTT | 28400 RLU
SEQ ID NO 90 (designed binder, not shown: small tags and cut ends) MLPAPKNLVVSRVTEDSARLSWQGVARAFDSFLITYREQIFAGEVIVLTVPGSERSYDLTGLKPGTEYPVWIQGVKGGSPSAEFTT | 12400 RLU
SEQ ID NO 24 (designed binder, not shown: small tags and cut ends) MLPAPKNLVVSRVTEDSARLSWTAPDAAFDSFMIRYQEGTRWGEAIVLTVPGSERSYDLTGLKPGTEYIVMIAGVKGGQISLPLSAIFTT | 6550 RLU
SEQ ID NO 97 (designed binder, not shown: small tags and cut ends) MLPAPKNLVVSRVTEDSARLSWTAPDAAFDSFHIWYEEETTIGEAIYLHVPGSERSYDLTGLKPGTEYEVHITGVKGGPYSRPLFANFTT | 6500 RLU
SEQ ID NO 93 (designed binder, not shown: small tags and cut ends) MLPAPKNLVVSRVTEDSARLSWTAPDAAFDSFAIEYYEPVPAGEAIYLDVPGSERSYDLTGLKPGTEYDVTIYGVKGGYYSHPLFASFTT | 4750 RLU
SEQ ID NO 100 (designed binder, not shown: small tags and cut ends) MLPAPKNLVVSRVTEDSARLSWTAPDAAFDSFYIWYEEVMYLGEAIVLTVPGSERSYDLTGLKPGTEYNVPIPGVKGGHSSPPLSAIFTT | 5150 RLU
SEQ ID NO 20 (designed binder, not shown: small tags and cut ends) MLPAPKNLVVARVTEDSARLSWTAPDAAIDSFPIDYSEYWWGGEAIVLTVPGSERSYDLTGLKPGTEYPVLITGVKGGYRSGPLSAIFTT | 18400 RLU
SEQ ID NO 82 (designed binder, not shown: small tags and cut ends) MLPAPKNLVVSRVTEDSARLSWTAPDAAFDSFLIPYAETSPSGEAIVLTVPGSERSYDLTGLKPGTEYSVLIHGVKGGDYSSPLSAIFTT | 14800 RLU
SEQ ID NO 83 (designed binder, not shown: small tags and cut ends) MLPAPKNLVVSRVTEDSARLSWTAPDAAFDSFPIAYAEPRPDGEAIVLTVPGSERSYDLTGLKPGTEYSVLIHGVKGGLLSSPLSAISTT | 111000 RLU
SEQ ID NO 12 (designed binder, not shown: small tags and cut ends) MLPAPKNLVVSRVTEDSARLSWTAPDAAFDSFFIPYAEPSPTGEAIVLTVPGSERSYDLTGLKPGTEYSVLIHGVKGGHLSDPLSAISTT | 49000 RLU
SEQ ID NO 99 (designed binder, not shown: small tags and cut ends) MLPAPKNLVVSRVTEDSARLSWTAPDAAFDSFFIPYAEPSPTGEAIVLTVPGSERSYDLTGLKPGTEYSVLIHGVKGGHLSDPLSVIFTT | 9850 RLU
SEQ ID NO 80 (designed binder, not shown: small tags and cut ends) MLPAPKNLVVSRVTEDSARLSWTAPDAAFDSFWIDYEEEGVIGEAIYLHVPGSERSYDLTGLKPGTEYVVKIHGVKGGHPSHPLVAVFTT | 33600 RLU
SEQ ID NO 89 (designed binder, not shown: small tags and cut ends) MLPAPENLVVSRVTEDSARLSWTAPDAAFDSFWIEYYEGVIQGEAIVLTVPGSERSYDLTGLKPGTEYFVAIWGVKGGKWSVPLSAIFTT | 6500 RLU
SEQ ID NO 22 (designed binder, not shown: small tags and cut ends) MLPAPKNLVVSRVTEDSARLSWTAPDAAFDSFWYLELQFAGEAIVLTVPGSERSYDLTGLKPGTEYNVPITGVKGGIISFPLSAIFTT | 30000 RLU
SEQ ID NO 13 (designed binder, not shown: small tags and cut ends) MLPAPKNLVVSRVTEDSARLSWTAPDAAFDSFLIAYPEDGFRGEAIVLTVPGSERSYDLTGLKPGTEYPVPILGVKGGGGSGPLSAIFTT | 24600 RLU
SEQ ID NO 18 (designed binder, not shown: small tags and cut ends) MLPAPKNLVVSRVTEDSARLSWTAPDAAFDSFNIMYHEIIYVGEAIVLTVPGSERSYDLTGLKPGTEYPVPIEGVKGGGTSGPLSAIFTT | 10400 RLU
SEQ ID NO 81 (designed binder, not shown: small tags and cut ends) MLPAPKNLVVSRVTEDSARLSWQGVARAFDSFLITYVELRHLGEAIVLTVPGSERSYDLTGLKPGTEYPVWIQGVKGGSPSAPLSAEFTT | 9850 RLU
SEQ ID NO 15 (designed binder, not shown: small tags and cut ends) MLPAPKNLVVSRVTEDSARLSWQGVARAFDSFLITYREQIFAGEVIVLTVPGSERSYDLTGLKPGTECPVWIQGVKGGSPSAPLSAEFTT | 14400 RLU
SEQ ID NO 102 (designed binder, not shown: small tags and cut ends) MLPAPKNLVVSRVTEDSARLSWQGVARAFDSFLITYREQIFAGEVIVLTVPGSERSYDLTGLKPGTEYPVWIQGVKGGSPSAPLSAEFTT | 39700 RLU
SEQ ID NO 94 (designed binder, not shown: small tags and cut ends) MLPAPKNLVVSEVTEDSARLSWQGVARAFDSFLITYREQIFAGEVIVLTVPGSERSYDLTGLKPGTEYPVWIQGVKGGSPSAPLSAIFTT | 87200 RLU
SEQ ID NO 84 (designed binder, not shown: small tags and cut ends) MLPAPKNLVVSRVTEDSARLSWQGVARAFDSFSILYLELTPKGEAIVLTVPGSERSYDLTGLKPGTEYPVWIQGVKGGSPSAPLSAEFTT | 127000 RLU
SEQ ID NO 21 (designed binder, not shown: small tags and cut ends) MLPAPKNLVVSRVTEDSARLSWTAPDAAFDSFSIRYNEFIVAGEAIVLTVPGSERSYDLTGLKPGTEYDVPIAGVKGGGASWPLSAIVTT | 6850 RLU
SEQ ID NO 96 (designed binder, not shown: small tags and cut ends) MSLPAPKNLVVSRVTEDSARLSWTAPDAAFDSFPIAYLEVFYEGEAIVLTVPGSERSYDLTGLKPGTEYQVPIEGVKGGAMSLPLSAIFTT | 15200 RLU
SEQ ID NO 85 (designed binder, not shown: small tags and cut ends) MLPAPKNLVVSRVTEDSARLSWTAPDAAFDSFIIEYFEPIPIGEAIVLTVPGSERSYDLTGLKPGTEYAVNIYGVKGGYLSHPLSAIFTT | 6350 RLU
SEQ ID NO 88 (designed binder, not shown: small tags and cut ends) MLPAPKNLVVSRVTEDSARLSWTAPDAAFDSFPIKYREVLRCGEAIVLTVPGSERSYDLTGLKPGTEYTVPITGVKGGFGSSPLSAIFTT | 24200 RLU
SEQ ID NO 17 (designed binder, not shown: small tags and cut ends) MLPAPKNLVVSRVTEDSARLSWTAPDAAFDSFPILYTECVYRGEAIVLTVPGSERSYDLTGLKPGTEYHVPITGVKGGGGSWPLSAIFTT | 3650 RLU
SEQ ID NO 87 (designed binder, not shown: small tags and cut ends) MLPAPKNLVVSRVTEDSARLSWTAPDAAFDSFAIEYTEFLYSGEAIVLTVPGSERSYDLTGLKPGTEYGVPINGVKGGFVSPPLSAIVTT | 3650 RLU
SEQ ID NO 19 (designed binder, not shown: small tags and cut ends) MLPAPKNLVVSRVTEDSARLSWTAPDAAFDSFAITYTEAALCGEAIVLTVPGSERSYDLTGLKPGTEYPVPINGVKGGGTSGPLSAIFTT | 17900 RLU
